Values joined by “and” are separate entries in the source; they are usually repeats but may differ in a detail not shown here. Equal entries are not always repeated.

Experiment [1] concerns the target T1, human IGF-IR-Fc fusion (human, UniProt P08069 31-932).
T1 construct: range 1-932; If it counts on the precursor, it includes the signal peptide; also called IGF1R-Fc; not shown: hinge and constant regions of human IgG
As to the kind of experiment: SPR (Biacore), captured IGF1R-Fc, midscale purified binder. (In general: Surface plasmon resonance follows binding to a sensor surface in real time, without labels.)

Experiment [2] concerns the target T1, human IGF-IR-Fc fusion. As to the kind of experiment: SPR (Biacore), IGF1R-Fc captured on Protein A. The protocol: (§1) Affinity data was also measured from midscale and large scale material, for the pegylated version of the tandem construct 385A08-Fn-V2B-cys (SEQ ID NO: 9, with and without his tag). The specific materials and methods for these calculations are described below.
(§2) An alternative method is to capture the IGF—IR-Fc on Protein A. This method was used for calculating the affinity and kinetics of certain versions of the construct 385A08-Fn-V2B-cys (both pegylated and non-pegylated and with or without his tag) from midscale and large scale materials. Specifically, IGF—IR-Fc was captured on Protein A immobilized on a Biacore CM5 sensor chip by amine coupling. VEGFR2-Fc was immobilized directly on a CM5 chip by amine coupling. The affinity and kinetic analysis involved the capture of IGF—IR-Fc on Protein A followed by injection of the tandem adnectin in solution over IGF—IR-Fc and VEGFR2-Fc. The analytical surface was regenerated between samples with glycine pH 1.5. Sensorgrams were obtained at each concentration and were evaluated using Biacore T100 evaluation software to determine the rate constants kₐ (kₒₙ) and kd (koff).

In experiment [3] the target is T1, human IGF-IR-Fc fusion. As to the kind of experiment: SPR (Biacore), IGF-IR-Fc captured on Protein A.
Text: as §2

Experiment [4] has as its target T2, VEGFR2-Fc (R&D Systems) (UniProt P35968 20-764).
T2 construct: Bought reagent; not shown: Fc part of the bought fusion; not described
As to the kind of experiment: SPR (Biacore), VEGFR2-Fc immobilised directly on a CM5 chip.

In experiment [5] the target is T2, VEGFR2-Fc (R&D Systems). As to the kind of experiment: SPR (Biacore), VEGFR2-Fc immobilized directly on the chip. The procedure:
as §1, §2
The functionality of the V2B domain was assessed by evaluating a concentration series of the midscale and large scale purification of the tandem construct 385A08-Fn-V2B (pegylated, and non-pegylated versions, his-tag and non-his-tag versions) vs. VEGFR2-Fc that was directly immobilized on a CM5 chip surface (GE, Piscataway, N.J.). VEGFR2-Fc (R&D Systems, MN) was diluted to 12 ug/mL in 50 mM Acetate pH 5.0 for an immobilization level of ˜1300 RU. Varying concentrations of 385A08-Fn-V2B in the solution phase were monitored for association (2 minutes) and dissociation (10 minutes) kinetics at a flow rate of 50 uL/min. Two 30 second injections of 50 mM glycine pH 1.7 were used to regenerate the surface.

Experiment [6] deals with T2, VEGFR2-Fc (R&D Systems). The experiment is described as follows: SPR (Biacore), immobilized VEGFR2-Fc, midscale purified binder.
Experiment [7] addresses T3, VEGFR-2 (KDR) on transfected cells (UniProt P35968 20-1356, limits assumed).
T3 construct: whole, on cells; also called Flk-1
The experiment is described as follows: competitive blocking assay on 293:KDR cells; ratio of the IC50 values. The protocol: (§3) Similarly, the pegylated, his-tagged construct 385A08-Fn-V2B-cys was able to block the interaction of a mono-specific ¹⁰Fn3-based VEGFR-2 binder (Peg-V2Bshort, SEQ ID NO: 28) with VEGFR-2 present on 293:KDR cells. […] In particular, in a Ba/F3 assay (described below), the IC₅₀ for the monomeric, non-pegylated VEGFR2 binder V2Bshort (SEQ ID NO: 28) is approximately 0.1-3 nM whereas the IC₅₀ for the monomeric, non-pegylated VEGFR2 binder having SEQ ID NO: 44 (e.g., with an N-terminal extension) is approximately 8-13 nM. […] Both the R⁺ and 293:KDR cell based competitive blocking assays are described in detail in the materials and methods section below.
(§4) 293:KDR (Sibtech, Brookfield, Conn.) were plated in 96 well plates at a concentration of 25,000 cells per well in DMEM (Invitrogen, Carlsbad, Calif.) containing 10% fetal bovine serum (Hyclone, Logan, Utah). The following day, cells were washed twice in serum free DMEM containing 0.1% BSA (Invitrogen, Carlsbad, Calif.). After the washes, the cells were incubated at 4° C. for 10 minutes in binding buffer (serum free DMEM+0.1% BSA) containing increasing concentrations of VEGFR-2 antagonists or controls. Typical controls included the mono-specific ¹⁰Fn3-based VEGFR2 binder (Peg-V2Bshort, SEQ ID NO: 28) (positive control) or the mono-specific ¹⁰Fn3-based IGF-IR binder (AT580-PEG40, SEQ ID NO: 27) (negative control). […]

A further experiment addresses T4, human IGF-IR on cells (human, UniProt P08069 31-1367).
T4 construct: whole, on cells; also called cell surface IGF-IR
The experiment is described as follows: competitive blocking assay on R+ cells overexpressing human IGF-IR; competitor 200 nM IRDye 800CW-labelled AT580-PEG20-AT580. The protocol:
Certain tandem constructs were evaluated for their ability to compete with mono-specific IGF-IR and VEGFR-2 binders in vitro.
R⁺, a gift from Renato Baserga (Thomas Jefferson University, Philadelphia, Pa.), is a mouse embryo fibroblast overexpressing human IGF-IR in the context of a deletion in the mouse IGF-IR gene. Cells were plated in 96 well plates at a concentration of 20,000 cells per well in DMEM (Invitrogen, Carlsbad, Calif.) containing 5% calf serum (Hyclone, Logan, Utah). The following day, cells were washed twice in serum free DMEM containing 0.1% BSA (Invitrogen, Carlsbad, Calif.). After the washes, the cells were incubated at 4° C. for 10 minutes in binding buffer (serum free DMEM+0.1% BSA) containing increasing concentrations of IGF-IR antagonists or controls. Typical controls included the mono-specific ¹⁰Fn3-based IGF-IR binder (AT580-PEG40, SEQ ID NO: 27) (positive control) or the mono-specific ¹⁰Fn3-based VEGFR2 binder (Peg-V2Bshort, SEQ ID NO: 28) (negative control). Following this brief exposure to antagonists, R⁺ cells were additionally exposed to 200 nM of a bi-valent ¹⁰Fn3-based IGF-IR binder (AT580-PEG20-AT580, SEQ ID NO: 27) labeled with IRDye 800CW according to the manufacturer instructions (Li-Cor Biosciences, Lincoln, Nebr.). […] The resulting data was analyzed using GraphPad Prism (GraphPad Software, La Jolla, Calif.).

In experiment [8] the target is T3, VEGFR-2 (KDR) on transfected cells. The experiment is described as follows: competitive blocking assay on 293:KDR cells; competitor 200 nM IRDye 800CW-labelled Peg-V2Bshort. The procedure:
as §3, §4

Experiment [9] addresses VEGFR-2 in cynomolgus monkeys (in vivo). The experiment is described as follows: cell-based or functional assay.
Experiment [10] addresses VEGFR-2 in nude mice (in vivo) (UniProt P35918 20-1345, limits assumed). The experiment is described as follows: cell-based or functional assay.
The target of the next experiment is rat IGF1R (rat, UniProt P24062 31-933, limits assumed). As to the kind of experiment: method not stated; rat IGF1R.
Another experiment concerns the target mouse IGF1R (mouse, UniProt Q60751 31-933, limits assumed). The experiment is described as follows: method not stated; mouse IGF1R.
A further experiment has as its target human IGF1R (human, UniProt P08069 31-932, limits assumed). As to the kind of experiment: method not stated; human IGF1R.
A further experiment addresses monkey IGF1R (monkey). As to the kind of experiment: method not stated.

T2 sequence (P35968 20-764 limits assumed): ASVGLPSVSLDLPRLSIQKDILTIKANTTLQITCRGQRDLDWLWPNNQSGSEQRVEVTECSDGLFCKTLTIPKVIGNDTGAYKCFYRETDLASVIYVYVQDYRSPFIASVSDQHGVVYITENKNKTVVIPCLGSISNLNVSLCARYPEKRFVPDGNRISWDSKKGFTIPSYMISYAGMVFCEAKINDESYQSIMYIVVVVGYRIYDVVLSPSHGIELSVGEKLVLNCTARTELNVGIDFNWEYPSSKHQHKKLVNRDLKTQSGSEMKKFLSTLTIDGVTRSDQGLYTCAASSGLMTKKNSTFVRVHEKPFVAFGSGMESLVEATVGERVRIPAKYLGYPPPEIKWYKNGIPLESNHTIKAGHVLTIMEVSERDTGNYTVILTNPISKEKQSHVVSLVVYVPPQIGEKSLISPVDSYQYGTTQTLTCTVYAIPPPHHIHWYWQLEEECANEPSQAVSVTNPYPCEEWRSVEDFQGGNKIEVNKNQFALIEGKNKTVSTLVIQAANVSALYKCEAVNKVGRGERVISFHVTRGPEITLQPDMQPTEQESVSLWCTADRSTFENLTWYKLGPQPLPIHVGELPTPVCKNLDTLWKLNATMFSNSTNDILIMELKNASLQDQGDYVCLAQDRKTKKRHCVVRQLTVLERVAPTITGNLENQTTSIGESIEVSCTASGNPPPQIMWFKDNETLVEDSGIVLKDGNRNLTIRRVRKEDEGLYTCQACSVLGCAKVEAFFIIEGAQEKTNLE
T1 sequence (P08069 31-932 limits assumed, form in doubt): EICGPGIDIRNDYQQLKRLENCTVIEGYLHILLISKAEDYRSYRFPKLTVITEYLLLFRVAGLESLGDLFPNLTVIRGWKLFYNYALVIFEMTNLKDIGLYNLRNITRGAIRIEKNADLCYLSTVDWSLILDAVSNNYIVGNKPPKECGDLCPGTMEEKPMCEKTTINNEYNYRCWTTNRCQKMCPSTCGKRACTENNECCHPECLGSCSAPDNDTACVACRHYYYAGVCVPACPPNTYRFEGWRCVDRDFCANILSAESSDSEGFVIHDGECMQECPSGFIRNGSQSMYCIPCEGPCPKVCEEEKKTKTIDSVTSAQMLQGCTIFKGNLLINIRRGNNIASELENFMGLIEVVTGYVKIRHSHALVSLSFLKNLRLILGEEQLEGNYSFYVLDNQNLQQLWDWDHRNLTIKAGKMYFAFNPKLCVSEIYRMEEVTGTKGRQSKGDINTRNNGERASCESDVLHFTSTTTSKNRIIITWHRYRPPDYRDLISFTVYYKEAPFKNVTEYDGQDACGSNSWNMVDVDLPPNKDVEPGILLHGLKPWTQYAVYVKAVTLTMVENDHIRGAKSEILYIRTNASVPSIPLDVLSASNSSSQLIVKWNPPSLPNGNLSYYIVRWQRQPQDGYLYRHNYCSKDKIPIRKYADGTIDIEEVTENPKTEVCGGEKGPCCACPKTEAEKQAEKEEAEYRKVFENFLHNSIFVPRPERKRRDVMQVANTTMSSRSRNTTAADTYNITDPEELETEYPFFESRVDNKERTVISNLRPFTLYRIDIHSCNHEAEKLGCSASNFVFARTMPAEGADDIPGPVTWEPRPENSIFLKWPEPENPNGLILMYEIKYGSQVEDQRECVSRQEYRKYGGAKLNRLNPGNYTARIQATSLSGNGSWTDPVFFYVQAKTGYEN
T3 sequence (P35968 20-1356 limits assumed): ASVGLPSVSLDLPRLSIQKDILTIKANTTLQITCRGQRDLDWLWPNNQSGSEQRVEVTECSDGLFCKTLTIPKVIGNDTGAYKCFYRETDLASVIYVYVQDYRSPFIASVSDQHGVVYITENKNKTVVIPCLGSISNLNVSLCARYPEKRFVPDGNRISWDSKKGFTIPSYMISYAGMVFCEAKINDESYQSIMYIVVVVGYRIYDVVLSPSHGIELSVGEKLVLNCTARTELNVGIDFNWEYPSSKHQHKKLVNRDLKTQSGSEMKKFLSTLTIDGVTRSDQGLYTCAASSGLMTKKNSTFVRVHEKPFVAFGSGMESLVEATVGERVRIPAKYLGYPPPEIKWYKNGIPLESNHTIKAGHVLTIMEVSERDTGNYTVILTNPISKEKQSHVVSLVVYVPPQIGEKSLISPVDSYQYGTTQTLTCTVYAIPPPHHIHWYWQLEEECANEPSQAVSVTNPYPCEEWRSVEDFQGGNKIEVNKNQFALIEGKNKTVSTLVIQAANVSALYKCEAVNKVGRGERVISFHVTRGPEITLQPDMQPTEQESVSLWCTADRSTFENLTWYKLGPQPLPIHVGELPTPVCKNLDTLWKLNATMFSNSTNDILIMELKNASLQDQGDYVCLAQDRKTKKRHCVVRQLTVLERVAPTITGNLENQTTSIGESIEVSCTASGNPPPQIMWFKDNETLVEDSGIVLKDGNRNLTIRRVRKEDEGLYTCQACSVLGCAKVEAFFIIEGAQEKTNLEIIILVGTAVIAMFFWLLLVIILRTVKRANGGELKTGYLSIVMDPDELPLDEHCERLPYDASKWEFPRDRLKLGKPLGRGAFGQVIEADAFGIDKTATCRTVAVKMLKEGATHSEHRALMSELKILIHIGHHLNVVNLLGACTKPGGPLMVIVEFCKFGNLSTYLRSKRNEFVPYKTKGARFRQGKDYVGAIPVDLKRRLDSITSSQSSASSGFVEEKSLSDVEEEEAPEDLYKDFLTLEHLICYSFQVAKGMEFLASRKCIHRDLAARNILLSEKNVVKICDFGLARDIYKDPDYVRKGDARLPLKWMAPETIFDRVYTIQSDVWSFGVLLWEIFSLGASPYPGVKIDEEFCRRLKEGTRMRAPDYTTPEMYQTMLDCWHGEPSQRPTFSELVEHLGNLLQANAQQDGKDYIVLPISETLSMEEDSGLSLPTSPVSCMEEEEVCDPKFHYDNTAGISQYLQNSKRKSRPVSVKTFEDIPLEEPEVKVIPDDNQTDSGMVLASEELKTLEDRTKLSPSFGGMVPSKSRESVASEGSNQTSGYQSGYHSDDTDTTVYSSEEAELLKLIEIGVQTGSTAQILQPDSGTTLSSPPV
Chain of mouse IGF1R (Q60751 31-933 limits assumed): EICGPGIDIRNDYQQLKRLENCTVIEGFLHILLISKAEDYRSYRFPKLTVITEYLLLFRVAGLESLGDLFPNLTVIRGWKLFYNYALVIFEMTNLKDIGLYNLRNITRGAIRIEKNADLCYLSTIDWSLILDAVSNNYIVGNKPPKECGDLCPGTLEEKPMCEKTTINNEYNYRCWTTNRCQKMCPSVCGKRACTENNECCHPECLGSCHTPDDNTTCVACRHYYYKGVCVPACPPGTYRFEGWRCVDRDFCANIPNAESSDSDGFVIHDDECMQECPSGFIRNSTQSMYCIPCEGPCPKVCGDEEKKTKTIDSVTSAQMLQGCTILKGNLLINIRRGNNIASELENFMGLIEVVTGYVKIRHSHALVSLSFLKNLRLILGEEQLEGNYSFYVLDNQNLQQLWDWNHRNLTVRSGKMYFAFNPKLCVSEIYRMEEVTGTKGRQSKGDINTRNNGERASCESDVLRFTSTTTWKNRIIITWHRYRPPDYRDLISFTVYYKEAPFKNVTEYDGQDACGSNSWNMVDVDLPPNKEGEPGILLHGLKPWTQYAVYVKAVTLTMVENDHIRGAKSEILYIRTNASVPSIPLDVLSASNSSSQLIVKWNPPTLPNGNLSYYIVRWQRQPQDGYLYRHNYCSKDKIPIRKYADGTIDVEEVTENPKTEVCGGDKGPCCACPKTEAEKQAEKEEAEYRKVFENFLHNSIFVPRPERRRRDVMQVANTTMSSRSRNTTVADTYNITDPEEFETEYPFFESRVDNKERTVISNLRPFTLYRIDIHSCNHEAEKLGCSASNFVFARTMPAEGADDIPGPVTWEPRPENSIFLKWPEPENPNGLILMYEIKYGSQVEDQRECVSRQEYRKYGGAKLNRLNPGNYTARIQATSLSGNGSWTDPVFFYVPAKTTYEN
Chain of human IGF1R (P08069 31-932 limits assumed): as the sequence (P08069 31-932 limits assumed, form in doubt) above
Chain of rat IGF1R (P24062 31-933 limits assumed): as the sequence (Q60751 31-933 limits assumed) above, with D271G, Y629F, M714L counted along it

B1: pegylated, his-tagged 385A08-Fn-V2B-cys (designed binder)
chain: MGVSDVPRDLEVVAATPTSLLISWSARLKVARYYRITYGETGGNSPVQEFTVPKNVYTATISGLKPGVDYTITVYAVTRFRDYQPISINYRTEIDKPSTSTSTVSDVPRDLEVVAATPTSLLISWRHPHFPTRYYRITYGETGGNSPVQEFTVPLQPPTATISGLKPGVDYTITVYAVTDGRNGRLLSIPISINYRTEIDKPCQHHHHHH
modifications: 40 kD PEG on the single cysteine at position 203 (linear PEG in paragraph 246; type of PEG not stated in Example 6)
notes: also called 385A08-Fn-V2B-cys (with PEG and his-tag); linear pegylated, his-tagged 385A08-Fn-V2B-cys
By koff is commonly meant the first-order rate constant of dissociation. Usually kon stands for the second-order rate constant of association. The term Kd denotes the concentration at which binding is half-saturated. As a reminder, the IC50 is the concentration that gives 50% inhibition. Regarding B1, the koff with human IGF-IR-Fc fusion [1] is 0.000233 s⁻¹; with human IGF-IR-Fc fusion [2] it was 0.00025 s⁻¹ and 0.000223 s⁻¹ and 0.000238 s⁻¹; with VEGFR2-Fc (R&D Systems) [5] it was 9.5e-05 s⁻¹ (2×) and 0.00013 s⁻¹; with VEGFR2-Fc (R&D Systems) [6], 0.000149 s⁻¹. Besides, the on-rate constant (kon) with human IGF-IR-Fc fusion [1] is 200000 M⁻¹ s⁻¹; in the experiment with human IGF-IR-Fc fusion [2], 299000 M⁻¹ s⁻¹ and 480000 M⁻¹ s⁻¹ and 277000 M⁻¹ s⁻¹; with VEGFR2-Fc (R&D Systems) [5], 8600 M⁻¹ s⁻¹ and 21800 M⁻¹ s⁻¹ and 7530 M⁻¹ s⁻¹; with VEGFR2-Fc (R&D Systems) [6], 10600 M⁻¹ s⁻¹. For the same molecule, the dissociation constant (Kd) with human IGF-IR-Fc fusion [2] is 0.831 nM and 0.465 nM and 0.857 nM; with human IGF-IR-Fc fusion [3], 1.2 nM; with VEGFR2-Fc (R&D Systems) [4], 14 nM; with VEGFR2-Fc (R&D Systems) [5], 11 nM and 5.96 nM and 12.6 nM. Moreover, in experiment [7], the “fold difference in activity against Peg-V2Bshort” value was found to be 7 fold. The IC50 in the experiment with human IGF-IR on cells is 900 nM; in experiment [8], around 140 nM. Also, the “plasma IC50 (grand mean), PK/PD model, monkeys” value in experiment [9] turned out to be 228 nM. Also, the “plasma IC50, indirect-response PD model, nude mice bearing the Rh41 tumor” value in experiment [10] came to 13800 nM.

B2: 385A08-Fn-V2B-cys (with Peg) (designed binder)
chain: MGVSDVPRDLEVVAATPTSLLISWSARLKVARYYRITYGETGGNSPVQEFTVPKNVYTATISGLKPGVDYTITVYAVTRFRDYQPISINYRTEIDKPSTSTSTVSDVPRDLEVVAATPTSLLISWRHPHFPTRYYRITYGETGGNSPVQEFTVPLQPPTATISGLKPGVDYTITVYAVTDGRNGRLLSIPISINYRTEIDKPCQ
modifications: PEG on the single cysteine at position 203
As to B2, the Kd turned out to be 92 nM with rat IGF1R, 86 nM with mouse IGF1R, 0.277 nM with human IGF1R and 0.213 nM in the experiment with monkey IGF1R.
